Article PMC4931251, “Characterization of the targeting signal in mitochondrial β-barrel proteins” (Nature Communications, 2016)

Biological target: T1, cytosolic receptor domain of rat Tom20 (dTom20), uniformly 15N-labelled (Rattus norvegicus, UniProt Q62760 51-145, uniformly [15N]-labelled)
T1 construct: Tom20 from Rattus norvegicus, cytosolic receptor domain, residues 51-145; Cloned into pET-22b without the stop codon; also called [15N]-dTom20; rat dTom20; source: E. coli BL21(DE3), purified (Ni-NTA, gel filtration on Superdex 200)
T1 sequence (looked up): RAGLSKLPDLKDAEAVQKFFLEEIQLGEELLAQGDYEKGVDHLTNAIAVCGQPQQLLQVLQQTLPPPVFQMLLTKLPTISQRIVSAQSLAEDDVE
Assay: NMR titration; [1H,15N]-HSQC of 210 μM [15N]-dTom20 in 20 mM KPi pH 6.4, 50 mM KCl, 5% DMSO; aliquots of 10 mM unlabelled cyclic peptide in DMSO added (two molar excess); DMSO effect subtracted
Settings: both partners purified

- binding result: binds
B1: cyclic β-hairpin peptide derived from human voltage-dependent anion channel 1 (hVDAC1) (peptide)
peptide: LTLSALLDGKNVNAGGHKLGLGLPP
modifications: head-to-tail cyclised: the new C terminus (after the two added Pro) covalently linked to the N terminus
notes: human voltage-dependent anion channel 1 (hVDAC1), last two β-strands and the loop between them, a.a; L257 to L279; residue numbers correspond to full-length hVDAC1; two Pro residues added to the C terminus (told in words); Measured mass [M+H]+ = 2,436.48; also called cyclic peptide; source: synthetic peptide (Fmoc/tBu chemistry, cyclised, purified by RP-HPLC)
